Measured values from the RNAGym collection of RNA variant scans (doi:10.1021/acssynbio.7b00057).

B1: Pistol ribozyme (parent)
chain: GGGUCGUUGUUCCAUAAUCGCGUGGAUAUGGCACGCAAGUUUCUACCGGGCACCGUAAAUGUCCGACUGGAGCCGUUCGGGCGGCUAUAAACAGACCUCAGGCCCGAAGCGUGGCGGCACCUGCCGCCGGUGGUAAAAAAGAUCGGAAGAGCACACGUCU

Variants of: B1
Assay: aptazyme ON/OFF ratio, guanine; higher = stronger switching; co-transcriptional cleavage with and without guanine

| Variant | aptazyme ON/OFF ratio |
| --- | --- |
| GGGUCGUCGGGCAAUAAUCGCGUGGAUAUGGCACGCAAGUUUCUACCGGGCACCGUAAAUGUCCGACUGGAGCCGUUCGGGCGGCUAUAAACAGACCUCAGGCCCGAAGCGUGGCGGCACCUGCCGCCGGUGGUAAAAAAGAUCGGAAGAGCACACGUCU | 1.25 |
| GGGUCGGCAAUCCAUAAUCGCGUGGAUAUGGCACGCAAGUUUCUACCGGGCACCGUAAAUGUCCGACUGGAGCCGUUCGGGCGGCUAUAAACAGACCUCAGGCCCGAAGCGUGGCGGCACCUGCCGCCGGUGGUAAAAAAGAUCGGAAGAGCACACGUCU | 3.78 |
| GGGUCGUCGACUAAUAAUCGCGUGGAUAUGGCACGCAAGUUUCUACCGGGCACCGUAAAUGUCCGACUGGAGCCGUUCGGGCGGCUAUAAACAGACCUCAGGCCCGAAGCGUGGCGGCACCUGCCGCCGGUGGUAAAAAAGAUCGGAAGAGCACACGUCU | 1.06 |
| GGGUCGCUAAAGCAUAAUCGCGUGGAUAUGGCACGCAAGUUUCUACCGGGCACCGUAAAUGUCCGACUGGAGCCGUUCGGGCGGCUAUAAACAGACCUCAGGCCCGAAGCGUGGCGGCACCUGCCGCCGGUGGUAAAAAAGAUCGGAAGAGCACACGUCU | 1.2 |
| GGGUCGCCGAGUAAUAAUCGCGUGGAUAUGGCACGCAAGUUUCUACCGGGCACCGUAAAUGUCCGACUGGAGCCGUUCGGGCGGCUAUAAACAGACCUCAGGCCCGAAGCGUGGCGGCACCUGCCGCCGGUGGUAAAAAAGAUCGGAAGAGCACACGUCU | 1.11 |
| GGGUCGCUGCCGGAUAAUCGCGUGGAUAUGGCACGCAAGUUUCUACCGGGCACCGUAAAUGUCCGACUGGAGCCGUUCGGGCGGCUAUAAACAGACCUCAGGCCCGAAGCGUGGCGGCACCUGCCGCCGGUGGUAAAAAAGAUCGGAAGAGCACACGUCU | 1.18 |
| GGGUCGGACCAAGAUAAUCGCGUGGAUAUGGCACGCAAGUUUCUACCGGGCACCGUAAAUGUCCGACUGGAGCCGUUCGGGCGGCUAUAAACAGACCUCAGGCCCGAAGCGUGGCGGCACCUGCCGCCGGUGGUAAAAAAGAUCGGAAGAGCACACGUCU | 1.02 |
| GGGUCGUCCCGACAUAAUCGCGUGGAUAUGGCACGCAAGUUUCUACCGGGCACCGUAAAUGUCCGACUGGAGCCGUUCGGGCGGCUAUAAACAGACCUCAGGCCCGAAGCGUGGCGGCACCUGCCGCCGGUGGUAAAAAAGAUCGGAAGAGCACACGUCU | 1.1 |
| GGGUCGCCACGCUAUAAUCGCGUGGAUAUGGCACGCAAGUUUCUACCGGGCACCGUAAAUGUCCGACUGGAGCCGUUCGGGCGGCUAUAAACAGACCUCAGGCCCGAAGCGUGGCGGCACCUGCCGCCGGUGGUAAAAAAGAUCGGAAGAGCACACGUCU | 1.32 |
| GGGUCGCUCCUUAAUAAUCGCGUGGAUAUGGCACGCAAGUUUCUACCGGGCACCGUAAAUGUCCGACUGGAGCCGUUCGGGCGGCUAUAAACAGACCUCAGGCCCGAAGCGUGGCGGCACCUGCCGCCGGUGGUAAAAAAGAUCGGAAGAGCACACGUCU | 1.04 |
| GGGUCGGCCUUACAUAAUCGCGUGGAUAUGGCACGCAAGUUUCUACCGGGCACCGUAAAUGUCCGACUGGAGCCGUUCGGGCGGCUAUAAACAGACCUCAGGCCCGAAGCGUGGCGGCACCUGCCGCCGGUGGUAAAAAAGAUCGGAAGAGCACACGUCU | 1.12 |
| GGGUCGUGUAAAAAUAAUCGCGUGGAUAUGGCACGCAAGUUUCUACCGGGCACCGUAAAUGUCCGACUGGAGCCGUUCGGGCGGCUAUAAACAGACCUCAGGCCCGAAGCGUGGCGGCACCUGCCGCCGGUGGUAAAAAAGAUCGGAAGAGCACACGUCU | 1.15 |
| GGGUCGGUACCAUAUAAUCGCGUGGAUAUGGCACGCAAGUUUCUACCGGGCACCGUAAAUGUCCGACUGGAGCCGUUCGGGCGGCUAUAAACAGACCUCAGGCCCGAAGCGUGGCGGCACCUGCCGCCGGUGGUAAAAAAGAUCGGAAGAGCACACGUCU | 1.12 |
| GGGUCGUCUGGGCAUAAUCGCGUGGAUAUGGCACGCAAGUUUCUACCGGGCACCGUAAAUGUCCGACUGGAGCCGUUCGGGCGGCUAUAAACAGACCUCAGGCCCGAAGCGUGGCGGCACCUGCCGCCGGUGGUAAAAAAGAUCGGAAGAGCACACGUCU | 1.18 |
| GGGUCGUAACCUCAUAAUCGCGUGGAUAUGGCACGCAAGUUUCUACCGGGCACCGUAAAUGUCCGACUGGAGCCGUUCGGGCGGCUAUAAACAGACCUCAGGCCCGAAGCGUGGCGGCACCUGCCGCCGGUGGUAAAAAAGAUCGGAAGAGCACACGUCU | 1.07 |
| GGGUCGGCUAUUUAUAAUCGCGUGGAUAUGGCACGCAAGUUUCUACCGGGCACCGUAAAUGUCCGACUGGAGCCGUUCGGGCGGCUAUAAACAGACCUCAGGCCCGAAGCGUGGCGGCACCUGCCGCCGGUGGUAAAAAAGAUCGGAAGAGCACACGUCU | 1.16 |
| GGGUCGGUGUGUCAUAAUCGCGUGGAUAUGGCACGCAAGUUUCUACCGGGCACCGUAAAUGUCCGACUGGAGCCGUUCGGGCGGCUAUAAACAGACCUCAGGCCCGAAGCGUGGCGGCACCUGCCGCCGGUGGUAAAAAAGAUCGGAAGAGCACACGUCU | 1.2 |
| GGGUCGUAUCAGCAUAAUCGCGUGGAUAUGGCACGCAAGUUUCUACCGGGCACCGUAAAUGUCCGACUGGAGCCGUUCGGGCGGCUAUAAACAGACCUCAGGCCCGAAGCGUGGCGGCACCUGCCGCCGGUGGUAAAAAAGAUCGGAAGAGCACACGUCU | 1.06 |
